Assay results from article PMC11066147 (Heliyon, 2024).
“Also recorded” adds a separate entry of the source.

Columns and labels:
[1] = biological target: T1, PfHsp70-z (Plasmodium falciparum, UniProt Q8IC01); experiment: SPR self-association, immobilised ligand PfHsp70-z; assay type: binding
T1 sequence (Q8IC01 1-873): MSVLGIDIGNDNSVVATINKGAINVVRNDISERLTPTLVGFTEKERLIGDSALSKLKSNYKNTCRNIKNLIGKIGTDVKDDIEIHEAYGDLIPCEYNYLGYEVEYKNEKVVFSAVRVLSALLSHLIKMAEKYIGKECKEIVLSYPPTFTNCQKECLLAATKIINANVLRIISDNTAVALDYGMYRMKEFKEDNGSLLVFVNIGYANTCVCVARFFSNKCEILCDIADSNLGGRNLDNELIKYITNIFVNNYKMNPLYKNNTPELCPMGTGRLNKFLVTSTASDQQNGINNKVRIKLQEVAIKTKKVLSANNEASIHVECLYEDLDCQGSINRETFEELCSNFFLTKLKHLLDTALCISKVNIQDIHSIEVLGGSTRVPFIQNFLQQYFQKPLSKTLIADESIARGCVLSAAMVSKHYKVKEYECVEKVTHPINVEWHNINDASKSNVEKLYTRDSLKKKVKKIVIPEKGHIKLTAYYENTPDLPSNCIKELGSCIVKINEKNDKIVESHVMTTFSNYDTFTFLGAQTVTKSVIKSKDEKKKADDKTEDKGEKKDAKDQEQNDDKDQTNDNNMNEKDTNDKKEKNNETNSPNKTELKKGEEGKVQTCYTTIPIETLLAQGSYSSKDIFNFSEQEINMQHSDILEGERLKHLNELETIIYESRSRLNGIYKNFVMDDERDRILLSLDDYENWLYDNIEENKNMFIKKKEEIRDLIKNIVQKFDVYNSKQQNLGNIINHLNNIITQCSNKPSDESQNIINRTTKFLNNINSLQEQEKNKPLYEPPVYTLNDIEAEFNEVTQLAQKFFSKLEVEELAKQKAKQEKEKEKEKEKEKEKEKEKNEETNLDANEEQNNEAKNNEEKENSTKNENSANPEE

[2] = biological target: T2, PfHsp70-1 (Plasmodium falciparum, UniProt Q8IB24); experiment: SPR heterologous association with PfHsp70-1; assay type: binding
[3] = biological target: T2, PfHsp70-1; settings: previous study; ref [3]; cited from earlier work

T2 sequence (Q8IB24 1-677): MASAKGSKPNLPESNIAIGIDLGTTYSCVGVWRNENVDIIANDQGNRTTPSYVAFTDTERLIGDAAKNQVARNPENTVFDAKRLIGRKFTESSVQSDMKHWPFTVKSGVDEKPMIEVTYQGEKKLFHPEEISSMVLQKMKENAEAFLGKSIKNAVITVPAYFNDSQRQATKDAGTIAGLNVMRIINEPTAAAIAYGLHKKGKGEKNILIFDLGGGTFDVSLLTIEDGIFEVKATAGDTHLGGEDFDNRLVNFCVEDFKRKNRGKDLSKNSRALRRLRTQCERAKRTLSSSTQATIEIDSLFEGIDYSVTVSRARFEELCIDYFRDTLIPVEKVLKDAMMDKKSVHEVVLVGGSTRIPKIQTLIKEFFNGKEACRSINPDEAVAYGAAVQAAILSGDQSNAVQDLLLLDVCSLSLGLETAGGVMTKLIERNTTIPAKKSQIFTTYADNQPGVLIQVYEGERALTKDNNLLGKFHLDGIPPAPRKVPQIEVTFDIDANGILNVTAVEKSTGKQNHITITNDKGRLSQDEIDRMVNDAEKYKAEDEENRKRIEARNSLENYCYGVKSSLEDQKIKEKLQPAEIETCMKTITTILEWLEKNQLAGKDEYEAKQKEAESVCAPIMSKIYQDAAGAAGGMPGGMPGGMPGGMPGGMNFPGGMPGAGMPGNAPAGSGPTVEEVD

B1: PfHsp70-z: essential cytosol localised Hsp110 chaperone of Plasmodium falciparum, recombinant (protein)
chain: T1 sequence (Q8IC01 1-873)
[1]; NN vs ADP/ATP
  nucleotide regulation of self-association: its self-association was nucleotide independent; also recorded: its oligomerisation was not regulated by nucleotide
[1]; apo state
  KD self-association: 1.39 nM
[2]; apo- and ADP-states
  affinity in apo- vs ADP-state: occurred within the same order of affinity
[2]; relative to apo-state
  effect of nucleotide on heterologous association: ATP enhanced the direct association of the two chaperones
[3]
  effect of ATP on association: ATP substantially enhances their association
